For this experiment, the target named is trypsin. The experiment in a line: cell-based or functional assay.

Where “and” joins values, the source holds several entries; their conditions need not be identical. Equal entries are not always repeated.

For “inter-alpha trypsin inhibitor (ITI), native complex of light chain and heavy chain, affinity purified from human serum (from UniProt P19823 55-702)”, the inhibition of trypsin hydrolysis of P-toluenesulphonyl-L-arginine methyl ester (TAME) is 5 µg and 10 µg.
